Reference: publication PMC10904899, “Protein engineering of transaminase facilitating enzyme cascade reaction for the biosynthesis of azasugars” (iScience, 2024)

B1: MvTA (Mycolicibacterium vanbaalenii PYR-1) (protein)
chain: MGIDTGTSNLVAVEPGAIREDTPAGSVIQYSDYEIDYSSPFAGGVAWIEGEYLPAEDAKISIFDTGFGHSDLTYTVAHVWHGNIFRLGDHLDRLLDGARKLRLDSGYTKDELADITKKCVSLSQLRESFVNLTITRGYGKRKGEKDLSKLTHQVYIYAIPYLWAFPPAEQIFGTTAVVPRHVRRAGRNTVDPTIKNYQWGDLTAASFEAKDRGARTAILMDADNCVAEGPGFNVCIVKDGKLASPSRNALPGITRKTVFEIAGAMGIEAALRDVTSHELYDADEIMAVTTAGGVTPINTLDGVPIGDGEPGPVTVAIRDRFWALMDEPGPLIEAIQY
notes: homodimer; PLP on Lys195
B2: MvTA (Mycolicibacterium vanbaalenii PYR-1; A168E/H152N/H69K/K142P/K145R/L162I/R215G/S105P/S121M) (protein)
chain: MGIDTGTSNLVAVEPGAIREDTPAGSVIQYSDYEIDYSSPFAGGVAWIEGEYLPAEDAKISIFDTGFGKSDLTYTVAHVWHGNIFRLGDHLDRLLDGARKLRLDPGYTKDELADITKKCVMLSQLRESFVNLTITRGYGKRPGERDLSKLTNQVYIYAIPYIWAFPPEEQIFGTTAVVPRHVRRAGRNTVDPTIKNYQWGDLTAASFEAKDRGAGTAILMDADNCVAEGPGFNVCIVKDGKLASPSRNALPGITRKTVFEIAGAMGIEAALRDVTSHELYDADEIMAVTTAGGVTPINTLDGVPIGDGEPGPVTVAIRDRFWALMDEPGPLIEAIQY
notes: homodimer; PLP on Lys195
B3: MvTA (Mycolicibacterium vanbaalenii PYR-1; A168E/H152N/H69R/K142P/K145R/L162I/R215G/S105P/S121M) (protein)
chain: MGIDTGTSNLVAVEPGAIREDTPAGSVIQYSDYEIDYSSPFAGGVAWIEGEYLPAEDAKISIFDTGFGRSDLTYTVAHVWHGNIFRLGDHLDRLLDGARKLRLDPGYTKDELADITKKCVMLSQLRESFVNLTITRGYGKRPGERDLSKLTNQVYIYAIPYIWAFPPEEQIFGTTAVVPRHVRRAGRNTVDPTIKNYQWGDLTAASFEAKDRGAGTAILMDADNCVAEGPGFNVCIVKDGKLASPSRNALPGITRKTVFEIAGAMGIEAALRDVTSHELYDADEIMAVTTAGGVTPINTLDGVPIGDGEPGPVTVAIRDRFWALMDEPGPLIEAIQY
notes: homodimer; PLP on Lys195

Substrate: C[C@@H](N)c1ccccc1
Experiment: HPLC of acetophenone, nonlinear regression
Assay type: biochemical, Mycolicibacterium austroafricanum
Conditions: 20 mM D-fructose, 0.1 mM PLP, pH 6.0, 30°C
Description: HPLC of acetophenone, nonlinear regression on MvTA

Protein	Km [mM]	kcat [s⁻¹]	kcat/Km [M⁻¹ s⁻¹]
B1	0.71	0.0127	17.8
B2	3.93	0.189	48
B3	8.20	0.65	79.2
